Reference: patent US20170137467A1 (CHROMOTEK, published 2017)
Square brackets hold non-standard residues; d marks the D form. GABA = NCCCC(=O)O

Tests used:
Assay in all cases: BC2TW10X library pulldown with immobilized Nb, LC-MS of the supernatant
[1] = molecular target: T1, BC2T W10R peptide (BC2TW10X library) (human)
T1 construct: also called W10 permutant R
T1 peptide: Ac-PDRKAAVSHRQQ-NH2
Method: (§1) To investigate the binding specificity of the BC2T and derived mutants peptide libraries for each amino acid position of the sequence […] (SEQ ID NO:4) were synthesized with acetyl and amide groups located at the N-termini or C-termini respectively (Intavis). […] Incubations were performed in 300 μl PBS/0.01% CHAPS for 1 h on a HulaMixer (Life Technologies). Subsequent to a centrifugation step 10 μl supernatant were analyzed in a LC-MS procedure. Peptides were separated using an UltiMate3000 RSLCnano System (Thermo Scientific), composed of a C18 PepMap100μ-Precolumn (300 μm×5 mm; particle size: 5 μm; pore size: 100 Å—Thermo Scientific) and a C18 analytical column (Acclaim Rapid Separation LC (RSLC) Column: 150 mm×5 mm; particle size: 2.2 μm; pore size: 100 Å—Thermo Scientific). A step gradient was applied starting at 8% and ending after 20 min at 30% eluent B (80% acetonitrile, 20% H₂O, 0.1% formic acid). Peptides were analyzed using a FULL-MS-strategy detected by a Q Exactive Plus mass spectrometer (Thermo Scientific). As maximal injection time 100 ms was chosen while setting the AGC target to 3E6. The resolution was set to 70.000. Half-maximal signal areas were referenced to control precipitation approaches using a GFP-specific nanobody immobilized on agarose beads. All experiments were done in triplicates.

[2] = molecular target: T2, BC2T W10K peptide (BC2TW10X library) (human)
T2 construct: also called W10 permutant K
T2 peptide: Ac-PDRKAAVSHKQQ-NH2
Method: as §1

[3] = molecular target: T3, BC2T W10T peptide (BC2TW10X library) (human)
T3 construct: also called W10 permutant T
T3 peptide: Ac-PDRKAAVSHTQQ-NH2
Method: as §1

[4] = molecular target: T4, BC2T W10M peptide (BC2TW10X library) (human)
T4 construct: also called W10 permutant M
T4 peptide: Ac-PDRKAAVSHMQQ-NH2
Method: as §1

[5] = molecular target: T5, BC2T W10Q peptide (BC2TW10X library) (human)
T5 construct: also called W10 permutant Q
T5 peptide: Ac-PDRKAAVSHQQQ-NH2
Method: as §1

[6] = molecular target: T6, BC2T W10F peptide (BC2TW10X library) (human)
T6 construct: also called W10 permutant F
T6 peptide: Ac-PDRKAAVSHFQQ-NH2
Method: as §1

[7] = molecular target: T7, BC2T W10I peptide (BC2TW10X library) (human)
T7 construct: Isobaric with the leucine peptide; also called W10 permutant I
T7 peptide: Ac-PDRKAAVSHIQQ-NH2
Method: as §1

[8] = molecular target: T8, BC2T W10E peptide (BC2TW10X library) (human)
T8 construct: also called W10 permutant E
T8 peptide: Ac-PDRKAAVSHEQQ-NH2
Method: as §1

[9] = molecular target: T9, BC2T W10S peptide (BC2TW10X library) (human)
T9 construct: also called W10 permutant S
T9 peptide: Ac-PDRKAAVSHSQQ-NH2
Method: as §1

[10] = molecular target: T10, BC2T W10V peptide (BC2TW10X library) (human)
T10 construct: also called W10 permutant V
T10 peptide: Ac-PDRKAAVSHVQQ-NH2
Method: as §1

[11] = molecular target: T11, BC2T W10C peptide (BC2TW10X library) (human, also: Abu described as gamma-amino butyric acid)
T11 construct: also called W10 permutant C(Abu)
T11 peptide: Ac-PDRKAAVSH[GABA]QQ-NH2
Method: as §1

[12] = molecular target: T12, BC2T W10H peptide (BC2TW10X library) (human)
T12 construct: also called W10 permutant H
T12 peptide: Ac-PDRKAAVSHHQQ-NH2
Method: as §1

[13] = molecular target: T13, BC2T W10D peptide (BC2TW10X library) (human)
T13 construct: also called W10 permutant D
T13 peptide: Ac-PDRKAAVSHDQQ-NH2
Method: as §1

[14] = molecular target: T14, BC2T W10N peptide (BC2TW10X library) (human)
T14 construct: also called W10 permutant N
T14 peptide: Ac-PDRKAAVSHNQQ-NH2
Method: as §1

[15] = molecular target: T15, BC2T W10P peptide (BC2TW10X library) (human)
T15 construct: also called W10 permutant P
T15 peptide: Ac-PDRKAAVSHPQQ-NH2
Method: as §1

[16] = molecular target: T16, BC2T W10A peptide (BC2TW10X library) (human)
T16 construct: also called W10 permutant A
T16 peptide: Ac-PDRKAAVSHAQQ-NH2
Method: as §1

[17] = molecular target: T17, BC2T W10L peptide (BC2TW10X library) (human)
T17 construct: Isobaric with the isoleucine peptide; also called W10 permutant L
T17 peptide: Ac-PDRKAAVSHLQQ-NH2
Method: as §1

Measured: binding result

B1: BC2 nanobody (VHH)
VHH: QVQLVESGGGLVQPGGSLTLSCTASGFTLDHYDIGWFRQAPGKEREGVSCINNSDDDTYYADSVKGRFTIFMDNAKDTVYLQMNSLKPEDTAIYYCAEARGCKRGRYEYDFWGQGTQVTVSS
notes: Alpaca VHH, 122 aa; also called BC2-Nb; BC2 nanotrap (BC2-Nb immobilized on agarose/Sepharose beads); not shown: C-terminal 6xHis-tag added by the pHEN6 vector
no binding: all assays above
